Laboratory results reported in paper PMC11162469, “Discovery of RXFP2 genetic association in resistant hypertensive men and RXFP2 antagonists for the treatment of resistant hypertension” (Scientific Reports, 2024).
Substitutions are numbered along the chain they refer to. Each block holds one molecule with its values, some of them ahead of it.

Columns and labels:
[1] = biological target: T1, human LDLa peptide (UnitProt Q8WXD0 43-80) (Homo sapiens, UniProt Q8WXD0); experiment: ELISA binding to linker-less human LDLa peptide
T1 construct: human LDLa peptide (Q8WXD0 43-80)
T1 sequence (Q8WXD0 43-80 limits assumed): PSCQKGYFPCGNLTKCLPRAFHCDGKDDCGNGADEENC
Experimental: The human/rat RXFP2 cross reactive antibodies belong to two epitope bins and were further evaluated for binding to the linker-less human LDLa peptide (UnitProt Q8WXD0 43-80) by ELISA. […] The different domain requirements for binding are consistent with results from the binning experiment showing 4F6 and 4G6 are in a separate bin from 4B1.
Rat LDLa-linker_ratFc, human LDLa-linker_ratFc, or ratFc, or human LDLa peptide (Q8WXD0 43-80) was diluted to 1 µg/mL in 1X PBS and immobilized in separate 96-well ELISA plates (Nunc Maxisorp), 50 µL/well. The plates were then incubated overnight at 4 °C. The following day the plates were washed three times with ELISA wash buffer (PBS + 0.05% Tween-20) and then blocked with ELISA blocking buffer (PBS + 0.05% Tween-20 + 1% BSA), 200 µL/well, and incubated 1 h at room temperature on a shaker. Plates were again washed three times followed by the addition of the primary antibodies. Hybridoma supernatant was added neat, 50 µL/well; mouse serum was added 1:100 and then serially diluted 1:2 for 8 points, 50 µL/well. Purified antibodies were added 5 µg/mL in the first well and serially diluted down the plate 1:2 for 8 points, 50 µL/well. Primary antibody was incubated for 1 h at room temperature on a shaker. […] Stopping solution (2N Sulfuric acid) was added to the plates 50 µL/well, and then read on a plate reader (SpectraMax Molecular Devices) at 450 nm.

rat RXFP2 [2] = biological target: T2, rat RXFP2 (Rattus norvegicus, UniProt F7EMH8); experiment: INSL3-stimulated cAMP assay in HEK293 stably expressing rat RXFP2; settings: INSL3 EC80-stimulated cAMP, stable expression, N = 2; for IC50: read-out: HEK293-rat RXFP2 cAMP IC50;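 for all read-outs here: cAMP measured with an HitHunter kit in 384-well plates, 11-point dose–response curves up to 1 µM antibody, four-parameter variable-slope fit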
T2 sequence (F7EMH8 20-737): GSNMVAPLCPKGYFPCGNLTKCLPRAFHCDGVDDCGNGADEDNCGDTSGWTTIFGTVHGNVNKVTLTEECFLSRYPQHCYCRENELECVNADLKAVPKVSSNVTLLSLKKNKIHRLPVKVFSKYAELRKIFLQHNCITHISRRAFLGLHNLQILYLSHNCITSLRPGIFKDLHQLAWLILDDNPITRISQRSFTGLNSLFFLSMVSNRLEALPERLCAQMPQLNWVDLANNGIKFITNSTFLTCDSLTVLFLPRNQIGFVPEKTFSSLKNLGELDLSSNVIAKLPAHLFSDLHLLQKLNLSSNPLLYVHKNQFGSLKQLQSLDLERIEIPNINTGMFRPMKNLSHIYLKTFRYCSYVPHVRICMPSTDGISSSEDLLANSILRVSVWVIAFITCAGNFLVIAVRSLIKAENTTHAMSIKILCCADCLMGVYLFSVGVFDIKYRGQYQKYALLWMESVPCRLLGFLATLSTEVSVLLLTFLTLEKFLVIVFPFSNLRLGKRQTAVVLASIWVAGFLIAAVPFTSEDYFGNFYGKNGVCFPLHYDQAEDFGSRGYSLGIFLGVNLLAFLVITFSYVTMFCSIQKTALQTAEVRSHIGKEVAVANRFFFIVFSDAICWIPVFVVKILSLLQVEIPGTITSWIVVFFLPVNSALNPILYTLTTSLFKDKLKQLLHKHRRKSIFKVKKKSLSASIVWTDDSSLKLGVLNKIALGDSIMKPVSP

human RXFP2 = human RXFP2 (Homo sapiens, UniProt Q8WXD0); experiment: INSL3-stimulated cAMP assay in HEK293 stably expressing human RXFP2; settings: INSL3 EC80-stimulated cAMP, stable expression, N = 2; for IC50: read-out: HEK293-human RXFP2 cAMP IC50
Sequence of human RXFP2 (Q8WXD0 whole entry): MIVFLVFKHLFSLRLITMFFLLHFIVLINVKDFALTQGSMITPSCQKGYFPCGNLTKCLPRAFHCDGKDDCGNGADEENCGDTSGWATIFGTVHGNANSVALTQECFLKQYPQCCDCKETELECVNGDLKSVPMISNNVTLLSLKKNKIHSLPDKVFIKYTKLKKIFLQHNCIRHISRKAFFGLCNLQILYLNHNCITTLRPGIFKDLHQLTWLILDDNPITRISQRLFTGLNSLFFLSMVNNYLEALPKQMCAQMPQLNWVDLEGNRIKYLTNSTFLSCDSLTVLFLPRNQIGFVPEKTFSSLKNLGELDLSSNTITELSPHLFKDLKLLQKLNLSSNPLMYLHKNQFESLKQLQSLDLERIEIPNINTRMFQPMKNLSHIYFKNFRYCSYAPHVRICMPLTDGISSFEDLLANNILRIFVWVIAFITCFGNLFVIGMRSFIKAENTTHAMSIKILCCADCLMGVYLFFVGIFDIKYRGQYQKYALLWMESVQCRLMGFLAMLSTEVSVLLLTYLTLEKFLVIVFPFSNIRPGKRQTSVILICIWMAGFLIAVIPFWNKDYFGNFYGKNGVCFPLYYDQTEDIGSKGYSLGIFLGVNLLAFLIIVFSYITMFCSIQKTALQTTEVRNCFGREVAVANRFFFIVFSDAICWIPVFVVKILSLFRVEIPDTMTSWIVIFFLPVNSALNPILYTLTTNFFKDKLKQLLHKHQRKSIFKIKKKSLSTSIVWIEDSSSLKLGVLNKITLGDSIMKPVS

human LDLa-linker = biological target: T3, human LDLa-linker (Homo sapiens, UniProt Q8WXD0); experiment: Biacore S200 binding to human LDLa-linker protein
T3 construct: human LDLa linker [huRXFP2-LDLa-linker(38-105)-ratFc-8XHIS]; enterokinase cleavage site (C); rat Fc (C, cleaved yes); 8xHis (C, cleaved yes); made in house; host or cells: Expi293
T3 sequence (Q8WXD0 38-105): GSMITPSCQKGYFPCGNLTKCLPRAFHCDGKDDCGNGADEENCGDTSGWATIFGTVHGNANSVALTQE
Experimental: Goat anti Rat Fc gamma fragment specific (Jackson Immunoresearch, 112-005-071) was immobilized at 30 µg/mL to a Series S CM5 chip (Cytiva Life Sciences). In three separate runs, twenty different purified recombinant rat anti RXFP2 antibodies were then captured to the CM5 chip at a concentration of 5 µg/mL. The antibody panel was captured; rat LDLa-linker or human LDLa-linker protein was flowed as analyte at the following concentrations: 20 nM, 10 nM, 5 nM, 2.5 nM, […], and 0 nM. Antibody kinetics were evaluated using a 1:1 fit model (Biacore S200).

rat RXFP2 [3] = biological target: T2, rat RXFP2; experiment: INSL3-stimulated CYP11B1 mRNA expression in H295R stably expressing rat RXFP2; type: cell-based; parameters: expressed in transfected cells; settings: INSL3 EC80 (3.5 nM), 48 h, qPCR; N = 2
Experimental: (§1) RXFP2 antagonists were added to H295R-rRXFP2 before addition of INSL3 EC80 (3.5 nM) for 48 h, whereupon the cells and supernatants were collected. CYP11B1 and CYP11B2 mRNA were determined by qPCR and the RXFP2 blocker potencies were calculated (Fig. 5a). Fifteen antibodies have IC50s < 50 nM, and three of the top antibodies (1F2, 4G6, and 2D4) were selected for evaluation in steroid hormone secretion assays by ELISA.
(§2) Data entered as XY table, with x = [Inhibitor] (nM) and y = CYP11B2 or CYP11B1 fold change.

[4] = Pharmacokinetic study of RXFP2 mAbs in rat; type: in vivo, Wistar Han rats; settings: for half-life, extrapolated values: Wistar Han rats, 1 mg/kg sc., over 28 days; for estimated dose to achieve tenfold higher IC50 HEK-rRXFP2 cAMP activity for approximately 28 days in rat: from trough concentration, dose-linearity assumed; for AUClast / Cmax / Tmax: male Wistar Han rats, 1 mg/kg s.c., n = 3, mean ± SD
Experimental: For the pharmacokinetic study of RXFP2 mAbs in rat, 1G1, 2D4, 4B1, 4G6, 1F2, and 3F3 were prepared in phosphate buffered saline (0.100 mg/mL) with low endotoxin (≤ 0.76 EU/mL). Adult male Wistar Han rats (n = 3/mAb) were administered 1 mg/kg subcutaneously (10 mL/kg). Blood samples (100 µL) were collected in EDTA containing tubes at 0.25, 3, 6 24, 48, 96, 168 (day 7), 336 (day 14), 504 (day 21), and 672 (day 28) hours post dose, immediately centrifuged (6100 rpm), and 50 µL plasma stored at − 80 °C until assay. Rats maintained health throughout the study and were anesthetized (isoflurane to effect) and euthanized on day 28.
Frozen rat plasma samples were thawed and analyzed using a qualified analytical method based on sample dilution, followed by Electrochemiluminescence immunoassay analysis. The lower limit of quantification (LLQ) was 0.1 µg/mL using a 10 µL aliquot of 51-fold diluted rat plasma with a higher limit of quantification (HLQ) of 10 µg/mL. RXFP2 mAbs were captured with LDLa protein and detected with sulfo-tag labeled mouse anti-rat IgG2b. The computer systems that were used to acquire and quantify data included Gyrolab Workstation Version 8.1.5 and Watson LIMS version 7.6.1. Rat pharmacokinetic parameters were calculated by non-compartmental analysis (NCA) analysis using WinNonlin Phoenix 64 (version 8.3). Values are reported in mean ± standard deviation.

rat RXFP2 [5] = biological target: T2, rat RXFP2; experiment: Cortisol secretion (ELISA) in H295R stably expressing rat RXFP2; type: cell-based; parameters: expressed in transfected cells; settings: H295R-rRXFP2, 3.5 nM INSL3, 48 h, read-out: IC50 on INSL3-induced cortisol release
Experimental: as §1
(§3) The day after seeding, H295R cells were treated and incubated for 48 h before supernatants and cell lysates were collected. Treatments included INSL3, IgG, 1F2, and 4G6 at 0.035 pM–3.5 µM, 2D4 at 0.01 nM–1 uM, or phosphate buffered saline control. In RXFP2 antagonist assays, 3.5 nM INSL3 was used as the stimulus. Cortisol present in the adrenal cell supernatant at 48 h post treatment was detected by ELISA (R&D KGE008B). Sample dilution was optimized at 1/90 using a standard curve. Aldosterone was below the limit of detection by ELISA (R&D KGE016) and required liquid–liquid extraction (LLE) twice using methyl tetra butyl ether. Post extraction samples were dried (SPE Nitrogen dryer) and reconstituted for ELISA analysis. All samples were run in duplicates.

rat RXFP2 [6] = biological target: T2, rat RXFP2; experiment: INSL3-stimulated CYP11B2 mRNA expression in H295R stably expressing rat RXFP2; type: cell-based; parameters: expressed in transfected cells; settings: INSL3 EC80 (3.5 nM), 48 h, qPCR; N = 2
Experimental: as §1, §2

rat RXFP2 [7] = biological target: T2, rat RXFP2; experiment: Aldosterone secretion (ELISA) in H295R stably expressing rat RXFP2; type: cell-based; parameters: expressed in transfected cells; settings: H295R-rRXFP2, 3.5 nM INSL3, 48 h, read-out: IC50 on INSL3-induced aldosterone release
Experimental: as §1, §3

binding to linker-less human LDLa peptide [1]: bind | HEK293-rat RXFP2 cAMP % Max Response (rat RXFP2 [2]): 80.4% | IC50 (rat RXFP2 [2]): 48.5 nM | HEK293-human RXFP2 cAMP % Max Response (human RXFP2): ~ 82.7% | IC50 (human RXFP2): ~354 nM | cross reactivity to the human LDLa-linker (human LDLa-linker): cross reactivity
B1: 4F6: Human/rat cross-reactive RXFP2 monoclonal antibody, rat IgG2b backbone; binds the LDLa domain (antibody, V domains shown)
VH: EVQLQQSGPELVKPGASVKMSCKASGYTFTNYVLHWVKQKPGQGLEWIGYINPYNDGSKYNEKFKGRATLTSDKSSSTAYMELSSLTSEDSAVYYCARGGWLLDYFDYWGQGTTLTVSS
VL: DVLMTQSPLSLPVSLGEQASISCRSSQSIVHSDGDTYLEWYLQKPGQSPNLLIYKVSNRFSGVPDRFSGSGSGTDFTLKISRVEAEDLGVYYCFQGSHVPPTFGGGTKLEIK

IC50 (rat RXFP2 [3]): 0.32 nM | IC50 (rat RXFP2 [5]): 0.21 nM | HEK293-rat RXFP2 cAMP % Max Response (rat RXFP2 [2]): 76.1% | IC50 (rat RXFP2 [2]): 19.1 nM | IC50 (human RXFP2): ~405 nM | IC50 (rat RXFP2 [6]): 0.1 nM
B2: 1F2: RXFP2 monoclonal antibody from hybridoma, recombinantly expressed in a rat IgG2b backbone (antibody, V domains shown)
VH: QVQLKQSGPGLVQPSQSLSITCTVSGFSLTAYGVNWVRQSPGKGLEWLGVIWSGGNTDYNAPFISRLSITKDNSKSQVFFKMNSLEADDTAIYYCARAKGYYAMDYWGQGTSVTVSS
VL: DIQMTQSPASLSVSVGESVTITCRATENIYSNLVWYQQKQGQSPQLLVYAVTSLADGVPSRFSGSGSGTQYSLKINSLQSEDFGTYYCQHFWGTPYTFGGGTKLEIK
half-life, extrapolated values [4]: ≥ 264 h | estimated dose to achieve tenfold higher IC50 HEK-rRXFP2 cAMP activity for approximately 28 days in rat [4]: approximately 10 mg/kg | AUClast [4]: 3530 ± 746 µg·h/mL | Cmax [4]: 7860 ± 1750 ng/mL | Tmax [4]: 120 ± 42 h

IC50 (rat RXFP2 [3]): 0.14 nM | IC50 (rat RXFP2 [7]): 0.05 nM | IC50 (rat RXFP2 [5]): 0.17 nM | HEK293-rat RXFP2 cAMP % Max Response (rat RXFP2 [2]): 86.8% | IC50 (rat RXFP2 [2]): 21 nM | IC50 (human RXFP2): > 1000 nM | IC50 (rat RXFP2 [6]): 0.11 nM
B3: 2D4: RXFP2 monoclonal antibody from hybridoma, recombinantly expressed in a rat IgG2b backbone (antibody, V domains shown)
VH: QVQLKESGPGLVAPSQSLSITCTVSGFSLTTYGISWVRQPPGKGLEWLGVIWTGGGTNYNSALKSRLSISKDNSKSQVFLKMNSLQTDDTARYYCARTEGYYVMDYWGQGTSVTVSS
VL: B2 VL with S18T, T26S, Q42K, V51A, S53N, S77N, T94P, Y96W
half-life, extrapolated values [4]: ≥ 264 h | estimated dose to achieve tenfold higher IC50 HEK-rRXFP2 cAMP activity for approximately 28 days in rat [4]: approximately 9 mg/kg | AUClast [4]: 3210 ± 463 µg·h/mL | Cmax [4]: 7360 ± 1540 ng/mL | Tmax [4]: 168 ± 0 h
